For the experiment, the target named is pigeon ovomucoid (pigeon). Kind of experiment: BLI; BLItz system; biotinylated POVO; recombinant flagellin.

This is an account of results in paper PMC7567440.

Turning to “recombinant flagellin of Bacillus cereus HN001 (WR52_08290) (natural protein)”, the Kd came to 3.69 nM.
